Results taken from PMC11044165, “Two Novel [^68Ga]Ga-Labeled Radiotracers Based on Metabolically Stable [Sar^11]RM26 Antagonistic Peptide for Diagnostic Positron Emission Tomography Imaging of GRPR-Positive Prostate Cancer” (ACS Omega, 2024).

Legend:
PC-3 bearing mice = settings: mouse, in vivo; cited from earlier work
Method: It is quite interesting to compare the biodistribution results for the two new conjugates with their counterparts without the Gly^11/Sar^11 substitution, i.e., [^68Ga]Ga-NOTA-PEG2-RM26 and [^68Ga]Ga-NODAGA-PEG2-RM26, previously reported.[24] Despite the similar amounts of peptide and activity injected, the biodistribution data for [^68Ga]Ga-NOTA-PEG2-RM26 and [^68Ga]Ga-NODAGA-PEG2-RM26, in PC-3 bearing mice, are reported only for […].[24] Under these conditions, we are going to focus on a comparison with the data for 3 h pi.

[1] = in vivo; cited from earlier work
Source text: In agreement with their preclinical data, SUV values for the pancreas for [^68Ga]Ga-SB3 and [^68Ga]Ga-RM2 were around 40, while for [^68Ga]Ga-PEG3-RM26, this value was 2-fold lower.

in vivo = experiment: in vivo; design: species or system BALB/C nu/nu mice; settings: BALB/C nu/nu, mouse, iv, total radioactivity
Method: In vivo studies were conducted in accordance with European guidelines on laboratory animal protection and the Declaration of Helsinki. For the biodistribution and PET/CT experiments BALB/C nu/nu mice were used and the protocols were approved by the ethics committee for animal research in Uppsala (Sweden); permit number 00473/21.
After acclimatization, animals were subcutaneously injected on the right hind leg with a suspension of freshly harvested PC-3 cells (7 × 10^6 per animal) in PBS. Four weeks after, well palpable solid tumors were developed and the animals were randomly assigned in groups of four.
Animals (19 ± 2 g at the day of the experiment) were injected through the tail vein with 100 μL solution of radiopeptide under evaluation (40 pmol, 100 kBq–1 h pi, 40 pmol, 700 kBq–3 h pi) in PBS containing 1% w/v BSA. Another group of animals received a bolus injection with the radioconjugate (40 pmol, 300 kBq) in addition of 4 nmol of NOTA-PEG2-RM26–1 h pi Block group. At specified time points, animals were euthanized, tissues/organs of interest and tumors were collected, weighted, and the radioactivity content of the samples was measured.
Statistical analysis for the biodistribution data was performed with GraphPad Prism 7, employing a two-way ANOVA test with Tuckey’s posthoc analysis.

[2] = 40 pmol, Activity in GI (gastrointestinal tract)
[3] = 40 pmol, Activity uptake in blood
[4] = 40 pmol, Activity uptake in kidneys
[5] = 40 pmol, Activity uptake in tumor
[6] = Activity in GI (gastrointestinal tract)

Row | Molecule | Tumor/pancreas ratio (PC-3 bearing mice) | SUV values for the pancreas [1] | tissue uptake dose at 1 h (in vivo; [2]) | tissue uptake dose at 3 h (in vivo; [2]) | tissue uptake dose at 1 h (in vivo; 40 pmol, Activity in body) | tissue uptake dose at 3 h (in vivo; 40 pmol, Activity in body) | tissue uptake at 1 h (in vivo; [3]) | tissue uptake at 1 h (in vivo; [4]) | tissue uptake at 1 h (in vivo; [5]) | tissue uptake at 3 h (in vivo; [5]) | tissue uptake dose at 1 h (in vivo; [6]) | tissue uptake dose at 1 h (in vivo; Activity in body)
1 | NOTA-PEG3-d-Phe-Gln-Trp-Ala-Val-Gly-His-Sta-Leu-NH2 [[^68Ga]Ga-NOTA-PEG3-RM26, GRPR-targeting radioconjugate tested in clinical trials] | over 1 | 2-fold lower |  |  |  |  |  |  |  |  |  | 
2 | CC(C)C[C@H](NC(=O)C[C@H](O)[C@H](CC(C)C)NC(=O)[C@H](Cc1c[nH]cn1)NC(=O)CN(C)C(=O)[C@@H](NC(=O)[C@H](C)NC(=O)[C@H](Cc1c[nH]c2ccccc12)NC(=O)[C@H](CCC(N)=O)NC(=O)[C@@H](Cc1ccccc1)NC(=O)COCCOCCNC(=O)CCC(C(=O)O)N1CCN(CC(=O)O)CCN(CC(=O)O)CC1)C(C)C)C(N)=O (stereo partly drawn) [[^68Ga]Ga-NODAGA-PEG2-[Sar^11]RM26, metal not drawn] |  |  | 2.5 ± 0.3 %ID | 1.8 ± 0.7 %ID | 3.8 ± 0.6 %ID | 2.2 ± 0.9 %ID | < 1 %ID/g | < 5 %ID/g | 17 ± 3 %ID/g | 15 ± 3 %ID/g | 1.6 ± 0.2 %ID | 4 ± 3 %ID
3 | DOTA-Pip-DPhe-Gln-Trp-Ala-Val-Gly-His-Sta-Leu-NH2 [[^68Ga]Ga-RM2, GRPR-targeting radioconjugate tested in clinical trials] |  | around 40 |  |  |  |  |  |  |  |  |  | 
4 | CC(C)C[C@H](NC(=O)C[C@H](O)[C@H](CC(C)C)NC(=O)[C@H](Cc1c[nH]cn1)NC(=O)CN(C)C(=O)[C@@H](NC(=O)[C@H](C)NC(=O)[C@H](Cc1c[nH]c2ccccc12)NC(=O)[C@H](CCC(N)=O)NC(=O)[C@@H](Cc1ccccc1)NC(=O)COCCOCCNC(=O)CN1CCN(CC(=O)O)CCN(CC(=O)O)CC1)C(C)C)C(N)=O [[^68Ga]Ga-NOTA-PEG2-[Sar^11]RM26, metal not drawn] |  |  | 3 ± 0.4 %ID | 2 ± 1 %ID | 5 ± 0.2 %ID | 2 ± 1 %ID | < 1 %ID/g | < 5 %ID/g | 14 ± 3 %ID/g | 13 ± 1 %ID/g | 1.7 ± 0.2 %ID | 4.1 ± 0.6 %ID
5 | DOTA-p-aminomethylaniline-diglycolic acid-DPhe-Gln-Trp-Ala-Val-Gly-His-Leu-NHEt [[^68Ga]Ga-SB3, GRPR-targeting radioconjugate tested in clinical trials] |  | around 40 |  |  |  |  |  |  |  |  |  | 
